According to publication PMC10257199:
Where two headings read alike, the source gives them in different places.

What was measured:
[1] = molecular target: MBP-Vpu fusion protein (His8-MBP-linker-full-length HIV-1 Vpu, Q36C) (HIV-1); assay: SEC
[2] = molecular target: MBP-Vpu fusion protein (His8-MBP-linker-full-length HIV-1 Vpu, Q36C) (HIV-1); assay: SEC; remark: listed apart in the source
[3] = molecular target: MBP-Vpu fusion protein spin-labeled at residue Q36C (HIV-1); assay: DEER
[4] = molecular target: MBP-Vpu fusion protein spin-labeled at residue Q36C (HIV-1); assay: DEER; remark: listed apart in the source
[5] = molecular target: MBP-Vpu fusion protein spin-labeled at residue Q36C (HIV-1); assay: DEER; remark: listed apart in the source

MBP-Vpu fusion protein (His8-MBP-linker-full-length HIV-1 Vpu, Q36C)
stoichiometry N [1]: 5 | stoichiometry N [2]: 5

MBP-Vpu fusion protein spin-labeled at residue Q36C
stoichiometry N [3]: 5 | DEER modulation depth [4]: 0.24 | stoichiometry N [4]: > 3 | DEER modulation depth [5]: 0.56
